From article PMC9316690 come the findings set out here.

The target of experiment [1] is EFm1 D166Q, full-length chain (E. faecalis phage IME-EF1). Description: crystal structure; EFm1_(D166Q) 15 mg/mL, sitting drop, 16 °C; 2.2 Å; phases by Se-Met SAD.
Experiment [2] concerns the target C-terminal domain EFm1 166-237 aa (E. faecalis phage IME-EF1). Description: crystal structure; EFm1_(166–237 aa) 10 mg/mL, sitting drop, 16 °C; 2.0 Å; eight monomers in the asymmetric unit.

In experiment [1], “8 kDa C-terminal fragment of EFm1, translated from the alternative start codon M168 (domain or fragment)” registered a stoichiometry N (CTD fragments per full-length chain) of 3.

What is called stoichiometry N is a count of units in the complex or per binding partner. For the substance “C-terminal domain EFm1 166-237 aa (domain or fragment)”, the stoichiometry N in experiment [2] was 4.
